Source: patent publication US20250333487A1 (CYTOMX THERAPEUTICS, published 2025)
One block for each binder: values may come before it. Where no end group is shown, it is not given here. The star is where a group is joined. Biotin = O=C1N[C@H]2[C@H](CS[C@H]2CCCCC(=O)*)N1

How the values were obtained:
[1] = molecular target: T1, biotinylated BC2 tag peptide QGQSGQPDRKAAVSHWQ; test: BLI (ForteBio Octet), biotinylated peptide on SSA biosensor tips, 100 nM Nb
T1 construct: Synthesized at ELIM Biopharmaceuticals; loaded on SSA biosensor tips at 100 nM; also called free BC2T peptide; the peptide
T1 peptide: Biotin-QGQSGQPDRKAAVSHWQ
Experimental: (§1) Binding of the unmasked nanobody and single-anchored BC2T-Nb to free BC2T peptide was assessed by BLI using the ForteBio Octet device. While BLI is generally used to calculate association and dissociation kinetics of binding interactions, it was used herein to detect binding Peptide corresponding to the following sequence: […] (SEQ ID NO: 567) was synthesized at ELIM Biopharmaceuticals with a biotin at the N-terminus. The peptide was loaded on SSA biosensor tips (Pall/ForteBio Cat #18-5117) at 100 nM in Binding Buffer (BB: 1×PBS, pH 7.2, 5% glycerol, 0.1% Tween-20, 2% BSA) for 10 minutes. Baseline incubation in BB for 1 min before and after this capture step were used to confirm protein capture. The loaded tips were then incubated in 100 nM Nb in BB for 6 minutes followed by incubation in BB for 6 minutes. Changes in interference distance (nanometers) at the sensor tip are plotted against time to follow the binding/dissociation of soluble proteins from the immobilized ligand on the tip (FIG. 7).

[2] = molecular target: T1, biotinylated BC2 tag peptide …; test: BLI (ForteBio Octet), biotinylated peptide on SSA biosensor tips
Experimental: Intact ProC653 and ProC654 show no binding to the biotinylated BC2 tag peptide, but binding was recovered upon activation with either MMP14 or MMP9, respectively.
as §1

binding result [1]: binds
B1: ProC649 (PP073), single-domain antibody (nanobody) with no MM attached, with His tag (VHH)
VHH: QVQLVESGGGLVQPGGSLTLSCTASGFTLDHYDIGWFRQAPGKEREGVSCINNSDDDTYYADSVKGRFTIFMNNAKDTVYLQMNSLKPEDTAIYYCAEARGCKRGRYEYDFWGQGTQVTVSS
notes: Monomer; also called unmasked nanobody; unmasked control

binding result [2]: no binding (tested: 100 nM)
B2: ProC654 (PP078), single-anchored BC2T-Nb: BC2 tag-PLGLAG-Nanobody, intact (VHH)
chain: QGQSGQPDRKAAVSHWQQGGGSSGGSPLGLAGGGGSQVQLVESGGGLVQPGGSLTLSCTASGFTLDHYDIGWFRQAPGKEREGVSCINNSDDDTYYADSVKGRFTIFMNNAKDTVYLQMNSLKPEDTAIYYCAEARGCKRGRYEYDFWGQGTQVTVSSGGSHHHHHHHHHH
notes: Monomer, uncleaved (masked) form; also called single-domain antibody with MM attached with a CM PLGLAG

binding result [2]: no binding (tested: 100 nM)
B3: ProC653 (PP077), single-anchored BC2T-Nb: BC2 tag-1490DNI-Nanobody, intact (VHH)
chain: QGQSGQPDRKAAVSHWQQGGGSSGGSISSGLLSGRSDNIGGGSQVQLVESGGGLVQPGGSLTLSCTASGFTLDHYDIGWFRQAPGKEREGVSCINNSDDDTYYADSVKGRFTIFMNNAKDTVYLQMNSLKPEDTAIYYCAEARGCKRGRYEYDFWGQGTQVTVSSGGSHHHHHHHHHH
notes: Monomer, uncleaved (masked) form; also called single-domain antibody with MM attached with a CM 1490DNI
